Source: patent publication US20220168396A1, “MULTI-RECEPTOR AGONIST AND MEDICAL USE THEREOF” (published 2022)
Square brackets hold non-standard residues; d marks the D form. Ends that are not written are not given here. Aib = CC(C)(N)C(=O)O

B1: Compound No. 13 (peptide)
peptide: Y[Aib]EGTFTSDYSIYLEKIAAKEFVNWLLAGGPSSGAPPPSK-NH2
modifications: N-terminus assumed
SMILES: CC[C@H](C)[C@H](NC(=O)[C@H](CCCCN)NC(=O)[C@H](CCC(=O)O)NC(=O)[C@H](CC(C)C)NC(=O)[C@H](Cc1ccc(O)cc1)NC(=O)[C@@H](NC(=O)[C@H](CO)NC(=O)[C@H](Cc1ccc(O)cc1)NC(=O)[C@H](CC(=O)O)NC(=O)[C@H](CO)NC(=O)[C@@H](NC(=O)[C@H](Cc1ccccc1)NC(=O)[C@@H](NC(=O)CNC(=O)[C@H](CCC(=O)O)NC(=O)C(C)(C)NC(=O)[C@@H](N)Cc1ccc(O)cc1)[C@@H](C)O)[C@@H](C)O)[C@@H](C)CC)C(=O)N[C@@H](C)C(=O)N[C@@H](C)C(=O)N[C@@H](CCCCN)C(=O)N[C@@H](CCC(=O)O)C(=O)N[C@@H](Cc1ccccc1)C(=O)N[C@H](C(=O)N[C@@H](CC(N)=O)C(=O)N[C@@H](Cc1c[nH]c2ccccc12)C(=O)N[C@@H](CC(C)C)C(=O)N[C@@H](CC(C)C)C(=O)N[C@@H](C)C(=O)NCC(=O)NCC(=O)N1CCC[C@H]1C(=O)N[C@@H](CO)C(=O)N[C@@H](CO)C(=O)NCC(=O)N[C@@H](C)C(=O)N1CCC[C@H]1C(=O)N1CCC[C@H]1C(=O)N1CCC[C@H]1C(=O)N[C@@H](CO)C(=O)N[C@@H](CCCCN)C(N)=O)C(C)C
B2: Compound No. 14 (peptide)
peptide: Y[Aib]EGTFTSDYSIYLEKIAAQEFVNWLLAGGPSSGAPPPSK-NH2
modifications: N-terminus assumed
SMILES: CC[C@H](C)[C@H](NC(=O)[C@H](CCCCN)NC(=O)[C@H](CCC(=O)O)NC(=O)[C@H](CC(C)C)NC(=O)[C@H](Cc1ccc(O)cc1)NC(=O)[C@@H](NC(=O)[C@H](CO)NC(=O)[C@H](Cc1ccc(O)cc1)NC(=O)[C@H](CC(=O)O)NC(=O)[C@H](CO)NC(=O)[C@@H](NC(=O)[C@H](Cc1ccccc1)NC(=O)[C@@H](NC(=O)CNC(=O)[C@H](CCC(=O)O)NC(=O)C(C)(C)NC(=O)[C@@H](N)Cc1ccc(O)cc1)[C@@H](C)O)[C@@H](C)O)[C@@H](C)CC)C(=O)N[C@@H](C)C(=O)N[C@@H](C)C(=O)N[C@@H](CCC(N)=O)C(=O)N[C@@H](CCC(=O)O)C(=O)N[C@@H](Cc1ccccc1)C(=O)N[C@H](C(=O)N[C@@H](CC(N)=O)C(=O)N[C@@H](Cc1c[nH]c2ccccc12)C(=O)N[C@@H](CC(C)C)C(=O)N[C@@H](CC(C)C)C(=O)N[C@@H](C)C(=O)NCC(=O)NCC(=O)N1CCC[C@H]1C(=O)N[C@@H](CO)C(=O)N[C@@H](CO)C(=O)NCC(=O)N[C@@H](C)C(=O)N1CCC[C@H]1C(=O)N1CCC[C@H]1C(=O)N1CCC[C@H]1C(=O)N[C@@H](CO)C(=O)N[C@@H](CCCCN)C(N)=O)C(C)C
B3: Compound No. 15 (peptide)
peptide: Y[Aib]EGTFTSDYSIYLEKIAQKEFVNWLLAGGPSSGAPPPSK-NH2
modifications: N-terminus assumed
SMILES: CC[C@H](C)[C@H](NC(=O)[C@H](CCCCN)NC(=O)[C@H](CCC(=O)O)NC(=O)[C@H](CC(C)C)NC(=O)[C@H](Cc1ccc(O)cc1)NC(=O)[C@@H](NC(=O)[C@H](CO)NC(=O)[C@H](Cc1ccc(O)cc1)NC(=O)[C@H](CC(=O)O)NC(=O)[C@H](CO)NC(=O)[C@@H](NC(=O)[C@H](Cc1ccccc1)NC(=O)[C@@H](NC(=O)CNC(=O)[C@H](CCC(=O)O)NC(=O)C(C)(C)NC(=O)[C@@H](N)Cc1ccc(O)cc1)[C@@H](C)O)[C@@H](C)O)[C@@H](C)CC)C(=O)N[C@@H](C)C(=O)N[C@@H](CCC(N)=O)C(=O)N[C@@H](CCCCN)C(=O)N[C@@H](CCC(=O)O)C(=O)N[C@@H](Cc1ccccc1)C(=O)N[C@H](C(=O)N[C@@H](CC(N)=O)C(=O)N[C@@H](Cc1c[nH]c2ccccc12)C(=O)N[C@@H](CC(C)C)C(=O)N[C@@H](CC(C)C)C(=O)N[C@@H](C)C(=O)NCC(=O)NCC(=O)N1CCC[C@H]1C(=O)N[C@@H](CO)C(=O)N[C@@H](CO)C(=O)NCC(=O)N[C@@H](C)C(=O)N1CCC[C@H]1C(=O)N1CCC[C@H]1C(=O)N1CCC[C@H]1C(=O)N[C@@H](CO)C(=O)N[C@@H](CCCCN)C(N)=O)C(C)C
B4: Compound No. 16 (peptide)
peptide: Y[Aib]EGTFTSDYSIYLEKE[Aib]AKEFVNWLLAGGPSSGAPPPSK-NH2
modifications: N-terminus assumed
SMILES: CC[C@H](C)[C@H](NC(=O)[C@H](CO)NC(=O)[C@H](Cc1ccc(O)cc1)NC(=O)[C@H](CC(=O)O)NC(=O)[C@H](CO)NC(=O)[C@@H](NC(=O)[C@H](Cc1ccccc1)NC(=O)[C@@H](NC(=O)CNC(=O)[C@H](CCC(=O)O)NC(=O)C(C)(C)NC(=O)[C@@H](N)Cc1ccc(O)cc1)[C@@H](C)O)[C@@H](C)O)C(=O)N[C@@H](Cc1ccc(O)cc1)C(=O)N[C@@H](CC(C)C)C(=O)N[C@@H](CCC(=O)O)C(=O)N[C@@H](CCCCN)C(=O)N[C@@H](CCC(=O)O)C(=O)NC(C)(C)C(=O)N[C@@H](C)C(=O)N[C@@H](CCCCN)C(=O)N[C@@H](CCC(=O)O)C(=O)N[C@@H](Cc1ccccc1)C(=O)N[C@H](C(=O)N[C@@H](CC(N)=O)C(=O)N[C@@H](Cc1c[nH]c2ccccc12)C(=O)N[C@@H](CC(C)C)C(=O)N[C@@H](CC(C)C)C(=O)N[C@@H](C)C(=O)NCC(=O)NCC(=O)N1CCC[C@H]1C(=O)N[C@@H](CO)C(=O)N[C@@H](CO)C(=O)NCC(=O)N[C@@H](C)C(=O)N1CCC[C@H]1C(=O)N1CCC[C@H]1C(=O)N1CCC[C@H]1C(=O)N[C@@H](CO)C(=O)N[C@@H](CCCCN)C(N)=O)C(C)C
B5: Compound No. 17 (peptide)
peptide: Y[Aib]EGTFTSDYSIYLEKEA[Aib]KEFVNWLLAGGPSSGAPPPSK-NH2
modifications: N-terminus assumed
SMILES: CC[C@H](C)[C@H](NC(=O)[C@H](CO)NC(=O)[C@H](Cc1ccc(O)cc1)NC(=O)[C@H](CC(=O)O)NC(=O)[C@H](CO)NC(=O)[C@@H](NC(=O)[C@H](Cc1ccccc1)NC(=O)[C@@H](NC(=O)CNC(=O)[C@H](CCC(=O)O)NC(=O)C(C)(C)NC(=O)[C@@H](N)Cc1ccc(O)cc1)[C@@H](C)O)[C@@H](C)O)C(=O)N[C@@H](Cc1ccc(O)cc1)C(=O)N[C@@H](CC(C)C)C(=O)N[C@@H](CCC(=O)O)C(=O)N[C@@H](CCCCN)C(=O)N[C@@H](CCC(=O)O)C(=O)N[C@@H](C)C(=O)NC(C)(C)C(=O)N[C@@H](CCCCN)C(=O)N[C@@H](CCC(=O)O)C(=O)N[C@@H](Cc1ccccc1)C(=O)N[C@H](C(=O)N[C@@H](CC(N)=O)C(=O)N[C@@H](Cc1c[nH]c2ccccc12)C(=O)N[C@@H](CC(C)C)C(=O)N[C@@H](CC(C)C)C(=O)N[C@@H](C)C(=O)NCC(=O)NCC(=O)N1CCC[C@H]1C(=O)N[C@@H](CO)C(=O)N[C@@H](CO)C(=O)NCC(=O)N[C@@H](C)C(=O)N1CCC[C@H]1C(=O)N1CCC[C@H]1C(=O)N1CCC[C@H]1C(=O)N[C@@H](CO)C(=O)N[C@@H](CCCCN)C(N)=O)C(C)C
B6: Compound No. 18 (peptide)
peptide: Y[Aib]EGTFTSDYSIYLE[Aib]IAAQEFVNWLLAGGPSSGAPPPSK-NH2
modifications: N-terminus assumed
SMILES: CC[C@H](C)[C@H](NC(=O)[C@H](CO)NC(=O)[C@H](Cc1ccc(O)cc1)NC(=O)[C@H](CC(=O)O)NC(=O)[C@H](CO)NC(=O)[C@@H](NC(=O)[C@H](Cc1ccccc1)NC(=O)[C@@H](NC(=O)CNC(=O)[C@H](CCC(=O)O)NC(=O)C(C)(C)NC(=O)[C@@H](N)Cc1ccc(O)cc1)[C@@H](C)O)[C@@H](C)O)C(=O)N[C@@H](Cc1ccc(O)cc1)C(=O)N[C@@H](CC(C)C)C(=O)N[C@@H](CCC(=O)O)C(=O)NC(C)(C)C(=O)N[C@H](C(=O)N[C@@H](C)C(=O)N[C@@H](C)C(=O)N[C@@H](CCC(N)=O)C(=O)N[C@@H](CCC(=O)O)C(=O)N[C@@H](Cc1ccccc1)C(=O)N[C@H](C(=O)N[C@@H](CC(N)=O)C(=O)N[C@@H](Cc1c[nH]c2ccccc12)C(=O)N[C@@H](CC(C)C)C(=O)N[C@@H](CC(C)C)C(=O)N[C@@H](C)C(=O)NCC(=O)NCC(=O)N1CCC[C@H]1C(=O)N[C@@H](CO)C(=O)N[C@@H](CO)C(=O)NCC(=O)N[C@@H](C)C(=O)N1CCC[C@H]1C(=O)N1CCC[C@H]1C(=O)N1CCC[C@H]1C(=O)N[C@@H](CO)C(=O)N[C@@H](CCCCN)C(N)=O)C(C)C)[C@@H](C)CC

Molecular target: human glucagon-like peptide-1 receptor (human, UniProt P43220)
Test: cell-based or functional assay

Question: B1 was tested. Which “Activity for human GLP-1R (EC50 nM), cAMP HTRF” value (“Activity for human GLP-1R” for short) did it give?
Answer: Its value is 0.013 nM.

Question: With B2 as the binder, how does the “Activity for human GLP-1R” value read?
Answer: Its value is 0.008 nM.

Question: B3 was tested. Which “Activity for human GLP-1R” value did it give?
Answer: Its value is 0.015 nM.

Question: B4 was tested. Which “Activity for human GLP-1R” value did it give?
Answer: The value was 0.007 nM.

Question: For B5, which “Activity for human GLP-1R” value is on record?
Answer: The value was 0.01 nM.

Question: For B6, which “Activity for human GLP-1R” value is on record?
Answer: Its value is 0.022 nM.

Molecular target: T1, human glucose-dependent insulinotropic peptide receptor (human, UniProt P48546)
T1 sequence: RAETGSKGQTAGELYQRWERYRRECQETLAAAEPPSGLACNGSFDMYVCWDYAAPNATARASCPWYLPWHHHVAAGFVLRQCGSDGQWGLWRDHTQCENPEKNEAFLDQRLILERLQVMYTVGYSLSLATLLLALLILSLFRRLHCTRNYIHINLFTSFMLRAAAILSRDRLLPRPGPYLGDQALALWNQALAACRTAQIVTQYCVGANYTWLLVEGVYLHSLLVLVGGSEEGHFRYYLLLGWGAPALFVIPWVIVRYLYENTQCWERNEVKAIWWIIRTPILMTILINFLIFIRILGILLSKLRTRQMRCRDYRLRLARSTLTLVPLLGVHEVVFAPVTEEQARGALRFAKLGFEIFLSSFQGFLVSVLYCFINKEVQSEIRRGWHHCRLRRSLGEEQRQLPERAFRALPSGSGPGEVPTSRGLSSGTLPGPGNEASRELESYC
Test: cell-based or functional assay

Question: With B1 as the binder, how does the “Activity for human GIPR (EC50 nM), cAMP HTRF” value (from here on “Activity for human GIPR”) read?
Answer: The value was 0.017 nM.

Question: Which “Activity for human GIPR” value does the source give for B2 here?
Answer: The value was 0.006 nM.

Question: B3 was tested. Which “Activity for human GIPR” value did it give?
Answer: Its value is 0.009 nM.

Question: Which “Activity for human GIPR” value does the source give for B4 here?
Answer: The value was 0.018 nM.

Question: B5 was tested. Which “Activity for human GIPR” value did it give?
Answer: The value was 0.057 nM.

Question: B6 was tested. Which “Activity for human GIPR” value did it give?
Answer: Its value is 0.012 nM.
